Source: EP4491631A1

What was measured:
[1] = target: IL-2R on murine splenocytes (mouse) (UniProt P16297); assay: cell-based or functional assay
[2] = target: CD122/CD132 complex (His-tagged, Acro Biosystem ILG-H5283) (UniProt P14784); assay: SPR, CD122/CD132 captured on NTA chip
CD122/CD132 complex (His-tagged, Acro Biosystem ILG-H5283), sequence (P14784 27-239 limits assumed, chain 1 of 2): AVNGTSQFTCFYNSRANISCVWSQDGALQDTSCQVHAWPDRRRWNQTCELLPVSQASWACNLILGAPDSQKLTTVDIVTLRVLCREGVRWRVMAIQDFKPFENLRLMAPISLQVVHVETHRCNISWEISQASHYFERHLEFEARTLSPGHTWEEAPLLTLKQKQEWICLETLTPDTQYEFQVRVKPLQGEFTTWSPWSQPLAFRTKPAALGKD
CD122/CD132 complex (His-tagged, Acro Biosystem ILG-H5283), sequence (P31785 23-262 limits assumed, chain 2 of 2, further chain): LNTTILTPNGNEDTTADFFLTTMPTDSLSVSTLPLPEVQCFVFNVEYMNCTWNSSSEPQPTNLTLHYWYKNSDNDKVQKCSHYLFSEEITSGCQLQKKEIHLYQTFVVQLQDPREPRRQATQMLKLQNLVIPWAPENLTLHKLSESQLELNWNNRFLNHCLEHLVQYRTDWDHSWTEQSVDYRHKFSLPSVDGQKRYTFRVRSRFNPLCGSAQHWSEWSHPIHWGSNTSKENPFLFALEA

IL-2R on murine splenocytes (mouse), sequence (P16297 27-539, chain 1 of 2): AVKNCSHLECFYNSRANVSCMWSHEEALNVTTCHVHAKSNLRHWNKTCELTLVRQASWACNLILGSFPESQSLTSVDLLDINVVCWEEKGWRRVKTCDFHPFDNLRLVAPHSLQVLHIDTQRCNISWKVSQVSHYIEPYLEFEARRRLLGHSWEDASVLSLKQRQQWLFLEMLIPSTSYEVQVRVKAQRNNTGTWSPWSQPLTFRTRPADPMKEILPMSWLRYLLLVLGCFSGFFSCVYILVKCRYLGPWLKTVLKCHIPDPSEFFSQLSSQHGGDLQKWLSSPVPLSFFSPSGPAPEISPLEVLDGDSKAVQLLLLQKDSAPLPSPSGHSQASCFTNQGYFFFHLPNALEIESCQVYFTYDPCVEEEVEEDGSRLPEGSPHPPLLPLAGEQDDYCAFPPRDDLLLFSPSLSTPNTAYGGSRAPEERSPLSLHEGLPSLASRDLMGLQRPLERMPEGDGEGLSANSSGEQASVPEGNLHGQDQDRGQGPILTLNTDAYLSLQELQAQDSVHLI
IL-2R on murine splenocytes (mouse), sequence (P34902 23-369, chain 2 of 2, further chain): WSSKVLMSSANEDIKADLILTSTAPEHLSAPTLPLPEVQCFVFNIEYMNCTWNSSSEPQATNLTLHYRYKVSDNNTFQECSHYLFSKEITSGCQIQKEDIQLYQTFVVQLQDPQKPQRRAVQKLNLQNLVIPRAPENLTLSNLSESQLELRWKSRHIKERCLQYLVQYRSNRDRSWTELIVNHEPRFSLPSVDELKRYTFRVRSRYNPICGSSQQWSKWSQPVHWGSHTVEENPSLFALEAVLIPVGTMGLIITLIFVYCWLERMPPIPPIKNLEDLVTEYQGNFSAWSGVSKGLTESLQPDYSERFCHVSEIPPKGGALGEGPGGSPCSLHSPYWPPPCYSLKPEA

EC50 CD8 cells (pSTAT5) [1]: 4.1 nM
EC50 NK cells (pSTAT5) [1]: 1.4 nM
EC50 Treg cells (pSTAT5) [1]: < 16 pM
EC50 pSTAT5 on CD8 cells [1]: 11.9 nM
EC50 pSTAT5 on NK cells [1]: 2.51 nM
EC50 pSTAT5 on Treg cells [1]: < 20 pM
Kd [2]: 0.42 nM
Substance: Proleukin (ligand)
